Test results: patent US20240409906, “INTEGRASES, LANDING PAD ARCHITECTURES, AND ENGINEERED CELLS COMPRISING THE SAME” (Asimov Inc., published 2024)

Legend:
Assay in all cases: cell_activity; attB x attP EGFP inversion reporter, HEK293FT
Int23 = target: T1, Int23 (Clostridium difficile 630); conditions: tags: C-terminal GS linker-SV40 NLS
T1 chain: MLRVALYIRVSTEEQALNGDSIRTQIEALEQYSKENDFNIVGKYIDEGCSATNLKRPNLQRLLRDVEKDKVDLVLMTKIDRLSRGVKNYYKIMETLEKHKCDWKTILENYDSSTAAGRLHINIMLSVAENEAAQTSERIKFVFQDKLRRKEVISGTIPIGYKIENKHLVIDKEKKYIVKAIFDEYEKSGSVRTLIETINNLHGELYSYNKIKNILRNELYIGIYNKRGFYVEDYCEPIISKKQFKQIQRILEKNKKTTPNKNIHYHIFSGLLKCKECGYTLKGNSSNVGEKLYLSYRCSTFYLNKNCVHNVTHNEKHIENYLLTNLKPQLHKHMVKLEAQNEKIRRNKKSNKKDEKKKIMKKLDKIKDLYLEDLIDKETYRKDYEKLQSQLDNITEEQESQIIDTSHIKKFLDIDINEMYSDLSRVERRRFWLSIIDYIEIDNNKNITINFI

Int5 = target: T2, Int5 (Streptomyces phage PhiK38-1); conditions: tags: C-terminal GS linker-SV40 NLS
T2 chain: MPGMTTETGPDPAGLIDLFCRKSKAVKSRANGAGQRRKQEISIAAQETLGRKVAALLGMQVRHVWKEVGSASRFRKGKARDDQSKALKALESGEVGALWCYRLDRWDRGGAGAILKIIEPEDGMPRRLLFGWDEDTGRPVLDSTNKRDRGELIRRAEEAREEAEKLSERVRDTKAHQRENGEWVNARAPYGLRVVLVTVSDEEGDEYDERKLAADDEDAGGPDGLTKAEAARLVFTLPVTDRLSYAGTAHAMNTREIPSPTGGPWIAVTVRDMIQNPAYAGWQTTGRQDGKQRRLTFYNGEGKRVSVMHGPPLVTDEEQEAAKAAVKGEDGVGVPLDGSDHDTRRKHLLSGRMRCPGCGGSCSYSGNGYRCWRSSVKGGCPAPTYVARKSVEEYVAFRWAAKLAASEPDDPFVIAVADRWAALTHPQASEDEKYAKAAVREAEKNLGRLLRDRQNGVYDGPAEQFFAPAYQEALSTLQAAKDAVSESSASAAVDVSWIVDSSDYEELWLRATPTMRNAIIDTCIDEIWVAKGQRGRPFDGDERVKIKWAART

Int29 = target: T3, Int29 (Bacillus weihenstephanensis KBAB4); conditions: tags: C-terminal GS linker-SV40 NLS; chain copies: 4
T3 chain: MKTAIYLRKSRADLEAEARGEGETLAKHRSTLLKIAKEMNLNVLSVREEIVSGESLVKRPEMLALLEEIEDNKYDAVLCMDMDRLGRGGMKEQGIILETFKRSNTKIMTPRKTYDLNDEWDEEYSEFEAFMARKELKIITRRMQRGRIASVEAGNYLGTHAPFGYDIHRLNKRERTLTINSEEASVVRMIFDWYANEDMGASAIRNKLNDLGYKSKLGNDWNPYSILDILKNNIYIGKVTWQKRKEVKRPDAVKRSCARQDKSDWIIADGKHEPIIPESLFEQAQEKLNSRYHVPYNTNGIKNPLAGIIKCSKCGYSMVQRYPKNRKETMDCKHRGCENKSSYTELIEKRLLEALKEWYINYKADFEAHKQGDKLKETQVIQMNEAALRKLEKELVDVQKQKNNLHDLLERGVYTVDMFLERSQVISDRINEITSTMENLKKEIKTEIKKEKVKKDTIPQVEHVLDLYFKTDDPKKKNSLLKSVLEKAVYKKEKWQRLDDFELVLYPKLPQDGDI

Int26 = Int26 (Clostridium botulinum F str. Langeland); conditions: tags: C-terminal GS linker-SV40 NLS
Int4 = target: T4, Int4 (Streptococcus equi subsp. equi 4047); conditions: tags: C-terminal GS linker-SV40 NLS
T4 chain: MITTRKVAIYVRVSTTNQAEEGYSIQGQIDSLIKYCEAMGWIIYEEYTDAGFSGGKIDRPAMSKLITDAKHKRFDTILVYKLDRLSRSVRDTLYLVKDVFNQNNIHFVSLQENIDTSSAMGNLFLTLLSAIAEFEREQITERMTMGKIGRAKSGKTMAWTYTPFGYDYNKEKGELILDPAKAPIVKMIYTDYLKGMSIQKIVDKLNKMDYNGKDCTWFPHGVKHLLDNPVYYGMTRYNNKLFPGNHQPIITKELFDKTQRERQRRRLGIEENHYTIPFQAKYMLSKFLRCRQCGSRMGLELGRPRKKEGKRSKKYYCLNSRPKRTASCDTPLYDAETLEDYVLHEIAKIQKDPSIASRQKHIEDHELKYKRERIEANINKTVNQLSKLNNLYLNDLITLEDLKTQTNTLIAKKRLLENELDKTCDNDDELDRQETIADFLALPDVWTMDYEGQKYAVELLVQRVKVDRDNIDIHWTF

Int32 = target: T5, Int32 (Rhodococcus jostii RHA1); conditions: tags: C-terminal GS linker-SV40 NLS; chain copies: 4
T5 chain: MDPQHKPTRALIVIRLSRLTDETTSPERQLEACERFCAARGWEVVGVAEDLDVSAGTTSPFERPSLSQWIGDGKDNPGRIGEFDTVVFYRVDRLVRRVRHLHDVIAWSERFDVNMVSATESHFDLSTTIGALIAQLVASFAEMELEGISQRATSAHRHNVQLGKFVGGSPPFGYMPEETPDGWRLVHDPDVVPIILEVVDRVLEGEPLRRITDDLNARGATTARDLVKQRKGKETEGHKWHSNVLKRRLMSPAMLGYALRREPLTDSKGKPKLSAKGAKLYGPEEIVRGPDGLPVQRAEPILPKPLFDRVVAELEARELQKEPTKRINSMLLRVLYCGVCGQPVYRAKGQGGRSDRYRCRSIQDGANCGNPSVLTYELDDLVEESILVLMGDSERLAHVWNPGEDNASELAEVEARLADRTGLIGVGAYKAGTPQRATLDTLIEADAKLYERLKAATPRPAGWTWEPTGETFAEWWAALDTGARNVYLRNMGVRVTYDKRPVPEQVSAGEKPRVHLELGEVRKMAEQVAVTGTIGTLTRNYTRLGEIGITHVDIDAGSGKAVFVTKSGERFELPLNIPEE

Int30 = target: T6, Int30 (Bacillus cereus AH187); conditions: tags: C-terminal GS linker-SV40 NLS; chain copies: 4
T6 chain: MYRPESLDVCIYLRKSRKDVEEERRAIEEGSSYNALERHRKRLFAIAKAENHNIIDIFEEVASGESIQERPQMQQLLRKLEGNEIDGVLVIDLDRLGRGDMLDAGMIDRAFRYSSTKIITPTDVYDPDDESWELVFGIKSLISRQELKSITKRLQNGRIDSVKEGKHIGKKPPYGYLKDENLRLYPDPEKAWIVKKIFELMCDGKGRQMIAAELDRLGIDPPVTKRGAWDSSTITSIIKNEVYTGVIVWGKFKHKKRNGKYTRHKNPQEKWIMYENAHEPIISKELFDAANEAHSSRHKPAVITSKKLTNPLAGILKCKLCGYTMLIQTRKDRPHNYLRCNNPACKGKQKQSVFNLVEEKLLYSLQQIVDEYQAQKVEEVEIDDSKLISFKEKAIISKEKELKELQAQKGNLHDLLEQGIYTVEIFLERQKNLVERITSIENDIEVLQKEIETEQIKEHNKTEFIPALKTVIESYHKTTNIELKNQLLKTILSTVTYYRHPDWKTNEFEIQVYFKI

B1: Int23 attP (dsDNA)
DNA 1: TATATAATTATTTGGACTAACATATAGTATCCACTTGGCTATTATTAGTTAGTCCAAATAAATA
DNA 2: TATTTATTTGGACTAACTAATAATAGCCAAGTGGATACTATATGTTAGTCCAAATAATTATATA
binding signal (Int23): 0.201 fraction of Bxb1

B2: Int5 attB (dsDNA)
DNA 1: GAGCGCCGGATCAGGGAGTGGACGGCCTGGGAGCGCTACACGCTGTGGCTGCGGTCGGTGC
DNA 2: GCACCGACCGCAGCCACAGCGTGTAGCGCTCCCAGGCCGTCCACTCCCTGATCCGGCGCTC
binding signal (Int5): 0.152 fraction of Bxb1

B3: Int29 attP (dsDNA)
DNA 1: CGTCACCTTGTTGGCGTAATTAGATTTACTCCAACAGGGTGATGACAAAGCTAATGAATTTT
DNA 2: AAAATTCATTAGCTTTGTCATCACCCTGTTGGAGTAAATCTAATTACGCCAACAAGGTGACG
binding signal (Int29): 2.92 fraction of Bxb1

B4: Int23 attB (dsDNA)
DNA 1: TATTCTAAGTAATGTAGTTTTACCACATCCACTAGGTCCGAGTAAACATAGAAATTCCCCT
DNA 2: AGGGGAATTTCTATGTTTACTCGGACCTAGTGGATGTGGTAAAACTACATTACTTAGAATA
binding signal (Int23): 0.201 fraction of Bxb1

B5: Int26 attB (dsDNA)
DNA 1: AGAAATAGACCTTTCAACTGGACAAGGTGCTGATAAAACTATGCAGCAAGTCTTAAGTAAA
DNA 2: TTTACTTAAGACTTGCTGCATAGTTTTATCAGCACCTTGTCCAGTTGAAAGGTCTATTTCT
binding signal (Int26): 0.204 fraction of Bxb1

B6: Int29 attB (dsDNA)
DNA 1: TTTGTAGCCATTAGGCGCATTAGGTTGACGCCATTAAGCCCTAAAGCATCATTCGTCGAAAC
DNA 2: GTTTCGACGAATGATGCTTTAGGGCTTAATGGCGTCAACCTAATGCGCCTAATGGCTACAAA
binding signal (Int29): 2.92 fraction of Bxb1

B7: Int4 attB (dsDNA)
DNA 1: TTCCAAAGAGCGCCCAACGCGACCTGAAATTTGAATAAGACTGCTGCTTGTGTAAAGGCGATGATT
DNA 2: AATCATCGCCTTTACACAAGCAGCAGTCTTATTCAAATTTCAGGTCGCGTTGGGCGCTCTTTGGAA
binding signal (Int4): 1.85 fraction of Bxb1

B8: Int4 attP (dsDNA)
DNA 1: CAAAAATTACAAAGTTTTCAACCCTTGATTTGAATTAGCGGTCAAATAATTTGTAATTCGTTT
DNA 2: AAACGAATTACAAATTATTTGACCGCTAATTCAAATCAAGGGTTGAAAACTTTGTAATTTTTG
binding signal (Int4): 1.85 fraction of Bxb1

B9: Int32 attP (dsDNA)
DNA 1: CTATGTGGTGGTAATAGCGAGTAGGGGACTACTCGCTCCAGGTACATTAACACCATGGA
DNA 2: TCCATGGTGTTAATGTACCTGGAGCGAGTAGTCCCCTACTCGCTATTACCACCACATAG
binding signal (Int32): 0.137 fraction of Bxb1

B10: Int26 attP (dsDNA)
DNA 1: AAATATAACCTGTGTATTGAAACAAGGTGCTGATAAAACCCTTTCATAAACACAAGTAAATA
DNA 2: TATTTACTTGTGTTTATGAAAGGGTTTTATCAGCACCTTGTTTCAATACACAGGTTATATTT
binding signal (Int26): 0.204 fraction of Bxb1

B11: Int30 attB (dsDNA)
DNA 1: GTAATATGTTTGGATATGGGGAAGTGAATCAGTACAACCGCCACAGTACCCTCATGTCAGCC
DNA 2: GGCTGACATGAGGGTACTGTGGCGGTTGTACTGATTCACTTCCCCATATCCAAACATATTAC
binding signal (Int30): 1.29 fraction of Bxb1

B12: Int5 attP (dsDNA)
DNA 1: CCCTAATACGCAAGTCGATAACTCTCCTGGGAGCGTTGACAACTTGCGCACCCTGATCTG
DNA 2: CAGATCAGGGTGCGCAAGTTGTCAACGCTCCCAGGAGAGTTATCGACTTGCGTATTAGGG
binding signal (Int5): 0.152 fraction of Bxb1

B13: Int30 attP (dsDNA)
DNA 1: ATAATAGTGTATATGGTAGAGAATTAAACCAGTTTAATACTCCACCATGTACACGCAGTGAG
DNA 2: CTCACTGCGTGTACATGGTGGAGTATTAAACTGGTTTAATTCTCTACCATATACACTATTAT
binding signal (Int30): 1.29 fraction of Bxb1

B14: Int32 attB (dsDNA)
DNA 1: ATCGCGCAGAACGGTGCGGTGATCAGTGAGTACGCACCGGGCACGACACCGGCGAAGCATCG
DNA 2: CGATGCTTCGCCGGTGTCGTGCCCGGTGCGTACTCACTGATCACCGCACCGTTCTGCGCGAT
binding signal (Int32): 0.137 fraction of Bxb1
